Results taken from patent US20100150879A1 (published 2010).
No end group written: not given here.

Legend:
[1] = molecular target: T1, VE-cadherin, endogenous in hdMVEC (human, UniProt P33151 48-784); assay: co-immunoprecipitation from confluent EC extracts
T1 construct: Endogenous protein from confluent EC extracts
T1 sequence (looked up): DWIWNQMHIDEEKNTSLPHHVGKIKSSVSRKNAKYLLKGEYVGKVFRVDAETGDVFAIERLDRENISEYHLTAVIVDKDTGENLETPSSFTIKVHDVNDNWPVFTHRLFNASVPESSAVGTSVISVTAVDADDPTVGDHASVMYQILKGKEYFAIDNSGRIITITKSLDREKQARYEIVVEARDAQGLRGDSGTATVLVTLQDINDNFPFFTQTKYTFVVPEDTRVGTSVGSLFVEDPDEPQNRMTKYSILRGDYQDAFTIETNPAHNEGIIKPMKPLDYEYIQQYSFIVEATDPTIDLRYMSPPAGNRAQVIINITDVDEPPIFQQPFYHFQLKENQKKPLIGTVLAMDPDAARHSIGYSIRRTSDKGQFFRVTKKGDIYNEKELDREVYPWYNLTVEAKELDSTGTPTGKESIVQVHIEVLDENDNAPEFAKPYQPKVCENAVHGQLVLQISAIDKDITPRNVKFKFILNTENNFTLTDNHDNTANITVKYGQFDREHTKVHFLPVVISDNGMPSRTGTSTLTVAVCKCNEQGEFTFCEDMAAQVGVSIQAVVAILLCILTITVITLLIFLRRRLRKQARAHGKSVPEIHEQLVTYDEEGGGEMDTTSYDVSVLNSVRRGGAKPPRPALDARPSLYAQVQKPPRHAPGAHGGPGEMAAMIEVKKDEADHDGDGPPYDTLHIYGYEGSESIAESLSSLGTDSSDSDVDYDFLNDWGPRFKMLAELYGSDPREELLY
Procedure: Biochemical Experiments. For immunoprecipitation experiments, cells were rinsed with cold phosphate buffered saline (PBS), pH 7.4 and solubilized with complete cell lysis buffer (50 mM HEPES, pH 7.5; 150 mM NaCl; 1% TRITON X-100; 1 mM calcium chloride; 1 mM magnesium chloride; 1 mM sodium orthovanadate; 25 mM sodium fluoride; 1 mM sodium pyrosphosphate; 1 mM phenylmethylsulfonyl fluoride (PMSF); 10 μg/ml aprotinin; 10 μg/ml leupeptin; 1 μg/ml pepstatin-A) or with modified RIPA buffer (20 mM Tris, pH 7.5; 0.1% SDS; 0.25% sodium deoxycholate; 1% TRITON X-100; 150 mM sodium chloride; 1 mM sodium pyrosphosphate; 25 mM sodium fluoride; 1 mM sodium orthovanadate; 5 mM magnesium chloride; 1 mM calcium chloride; 1 μg/ml pepstatin; 1 mM phenylmethylsulfonyl fluoride; 1 μg/ml leupeptin) at 4° C. for 30 minutes. Cell extracts were centrifuged at ˜21,000×g for 30 minutes at 4° C., pre-adsorbed, and immunoprecipitated using specific antibodies. Immune complexes were washed 4-5 times with lysis buffer or with cold immunoprecipitation wash buffer (50 mM HEPES, pH 7.5; 150 mM NaCl; 0.5% NP-40; 1 mM calcium chloride; 1 mM magnesium chloride). SEPHAROSE-bound immune complexes were boiled in 1× Lammeli reducing sample buffer and resolved by SDS-PAGE. […]

[2] = molecular target: T2, p120-catenin (p120ctn), endogenous (human, UniProt O60716 1-968, limits assumed); assay: GST pull-down
T2 construct: Endogenous protein from cell extracts of human cells (hdMVEC, HEK293)
T2 sequence (looked up): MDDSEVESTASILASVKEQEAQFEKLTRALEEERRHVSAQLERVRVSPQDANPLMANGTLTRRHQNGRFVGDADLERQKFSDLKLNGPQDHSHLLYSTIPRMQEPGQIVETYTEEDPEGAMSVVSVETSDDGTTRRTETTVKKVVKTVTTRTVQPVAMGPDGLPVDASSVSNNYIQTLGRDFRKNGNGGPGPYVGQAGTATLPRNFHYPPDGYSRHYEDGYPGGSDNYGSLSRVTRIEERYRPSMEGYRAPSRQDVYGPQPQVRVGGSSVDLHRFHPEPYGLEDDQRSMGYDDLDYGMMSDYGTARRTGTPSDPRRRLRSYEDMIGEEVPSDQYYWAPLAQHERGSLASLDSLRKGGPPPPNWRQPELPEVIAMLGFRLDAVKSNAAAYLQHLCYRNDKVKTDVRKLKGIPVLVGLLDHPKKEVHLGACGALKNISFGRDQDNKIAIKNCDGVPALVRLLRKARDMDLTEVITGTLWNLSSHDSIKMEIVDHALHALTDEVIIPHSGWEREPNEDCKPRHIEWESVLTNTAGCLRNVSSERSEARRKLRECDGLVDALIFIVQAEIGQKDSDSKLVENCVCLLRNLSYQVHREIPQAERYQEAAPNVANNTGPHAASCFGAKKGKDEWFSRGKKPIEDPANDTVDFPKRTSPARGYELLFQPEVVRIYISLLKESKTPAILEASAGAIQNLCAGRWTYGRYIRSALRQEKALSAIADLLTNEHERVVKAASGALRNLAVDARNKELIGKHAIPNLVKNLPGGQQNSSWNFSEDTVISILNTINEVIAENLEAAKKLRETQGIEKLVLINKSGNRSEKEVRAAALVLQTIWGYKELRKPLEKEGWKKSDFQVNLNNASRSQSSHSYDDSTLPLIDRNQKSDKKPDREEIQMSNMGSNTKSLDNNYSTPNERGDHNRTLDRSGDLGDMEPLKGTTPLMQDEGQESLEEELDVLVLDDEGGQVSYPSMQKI
Procedure: Pull-down assays were also carried out with GST-LPP3 fusion proteins. […] In these experiments, each of the membranes was probed for the presence of the GST-fusion protein.

[3] = molecular target: T1, VE-cadherin, endogenous in hdMVEC; assay: far western, GST-LPP3-C-cyto as bait on blotted immunoprecipitates from hdMVEC
β-catenin, endogenous [4] = molecular target: T3, β-catenin, endogenous (human, UniProt P35222 2-781); assay: as above
T3 construct: Endogenous protein from cell extracts; also called beta-catenin
T3 sequence (looked up): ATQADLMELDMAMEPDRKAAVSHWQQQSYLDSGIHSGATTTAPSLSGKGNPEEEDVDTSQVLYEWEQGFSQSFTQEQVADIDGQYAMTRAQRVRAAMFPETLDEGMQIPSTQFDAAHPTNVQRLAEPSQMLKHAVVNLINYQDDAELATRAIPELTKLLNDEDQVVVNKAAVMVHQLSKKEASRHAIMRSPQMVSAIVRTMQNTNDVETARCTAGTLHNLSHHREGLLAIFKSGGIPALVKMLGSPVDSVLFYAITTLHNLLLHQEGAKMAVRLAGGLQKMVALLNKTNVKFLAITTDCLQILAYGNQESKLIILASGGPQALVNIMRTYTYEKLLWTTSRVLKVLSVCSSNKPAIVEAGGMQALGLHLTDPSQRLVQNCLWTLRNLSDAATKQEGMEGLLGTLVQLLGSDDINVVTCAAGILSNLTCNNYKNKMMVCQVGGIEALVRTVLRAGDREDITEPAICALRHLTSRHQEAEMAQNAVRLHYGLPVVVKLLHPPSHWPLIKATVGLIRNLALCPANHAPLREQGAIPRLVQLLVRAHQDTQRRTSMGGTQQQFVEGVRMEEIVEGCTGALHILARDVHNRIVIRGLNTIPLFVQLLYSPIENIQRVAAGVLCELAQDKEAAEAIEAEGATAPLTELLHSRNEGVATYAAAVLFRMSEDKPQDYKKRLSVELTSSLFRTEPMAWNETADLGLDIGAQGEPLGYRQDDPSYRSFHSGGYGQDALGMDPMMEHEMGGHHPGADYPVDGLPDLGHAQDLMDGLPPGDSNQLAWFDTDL

[5] = molecular target: T4, γ-catenin (plakoglobin), endogenous (human, UniProt P14923 1-745); assay: as above
T4 construct: Endogenous protein from cell extracts; also called gamma-catenin
T4 sequence (looked up): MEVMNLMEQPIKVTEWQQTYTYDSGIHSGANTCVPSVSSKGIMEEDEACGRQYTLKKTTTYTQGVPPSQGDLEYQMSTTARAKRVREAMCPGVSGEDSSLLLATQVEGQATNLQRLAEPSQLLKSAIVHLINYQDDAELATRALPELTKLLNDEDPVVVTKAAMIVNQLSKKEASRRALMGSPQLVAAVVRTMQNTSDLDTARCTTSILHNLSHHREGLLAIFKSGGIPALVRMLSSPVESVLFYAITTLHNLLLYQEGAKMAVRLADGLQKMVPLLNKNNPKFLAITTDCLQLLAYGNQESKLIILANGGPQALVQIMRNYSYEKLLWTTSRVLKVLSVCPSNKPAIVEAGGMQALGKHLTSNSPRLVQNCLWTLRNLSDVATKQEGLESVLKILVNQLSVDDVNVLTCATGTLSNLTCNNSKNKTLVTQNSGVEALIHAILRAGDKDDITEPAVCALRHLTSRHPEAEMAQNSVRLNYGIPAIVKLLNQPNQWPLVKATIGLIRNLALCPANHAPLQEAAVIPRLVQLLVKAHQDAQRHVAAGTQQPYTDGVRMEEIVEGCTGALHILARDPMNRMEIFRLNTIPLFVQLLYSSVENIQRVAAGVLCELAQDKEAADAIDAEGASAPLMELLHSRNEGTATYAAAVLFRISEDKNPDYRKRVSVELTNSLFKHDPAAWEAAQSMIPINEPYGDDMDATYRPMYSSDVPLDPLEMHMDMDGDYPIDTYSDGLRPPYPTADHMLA

[6] = molecular target: T5, β1-integrin, endogenous in hdMVEC (human, UniProt P05556 21-798); assay: as above
T5 construct: Immunoprecipitated from hdMVEC extracts and blotted for far western analysis; also called beta1-integrin

β-catenin, endogenous [7] = molecular target: T3, β-catenin, endogenous; assay: interaction assay in extracts of ECs transfected with LPP3 constructs (method not spelled out)
β-catenin, endogenous [8] = molecular target: T3, β-catenin, endogenous; assay: immunoprecipitation and western blot, HEK293 cells expressing HA-LPP3
Procedure: (§1) For immunoprecipitation experiments, cells were rinsed with cold phosphate buffered saline (PBS), pH 7.4 and solubilized with complete cell lysis buffer (50 mM HEPES, pH 7.5; 150 mM NaCl; 1% TRITON X-100; 1 mM calcium chloride; 1 mM magnesium chloride; 1 mM sodium orthovanadate; 25 mM sodium fluoride; 1 mM sodium pyrosphosphate; 1 mM phenylmethylsulfonyl fluoride (PMSF); 10 μg/ml aprotinin; 10 μg/ml leupeptin; 1 μg/ml pepstatin-A) or with modified RIPA buffer (20 mM Tris, pH 7.5; 0.1% SDS; 0.25% sodium deoxycholate; 1% TRITON X-100; 150 mM sodium chloride; 1 mM sodium pyrosphosphate; 25 mM sodium fluoride; 1 mM sodium orthovanadate; 5 mM magnesium chloride; 1 mM calcium chloride; 1 μg/ml pepstatin; 1 mM phenylmethylsulfonyl fluoride; 1 μg/ml leupeptin) at 4° C. for 30 minutes. Cell extracts were centrifuged at ˜21,000×g for 30 minutes at 4° C., pre-adsorbed, and immunoprecipitated using specific antibodies. Immune complexes were washed 4-5 times with lysis buffer or with cold immunoprecipitation wash buffer (50 mM HEPES, pH 7.5; 150 mM NaCl; 0.5% NP-40; 1 mM calcium chloride; 1 mM magnesium chloride). SEPHAROSE-bound immune complexes were boiled in 1× Lammeli reducing sample buffer and resolved by SDS-PAGE.

[9] = molecular target: T4, γ-catenin (plakoglobin), endogenous; assay: as above
Procedure: as §1

β-catenin, endogenous [10] = molecular target: T3, β-catenin, endogenous; assay: co-immunoprecipitation from sub-confluent ECs transfected with FLAG-tagged PTEN
Procedure: Cell extracts were centrifuged at ˜21,000×g for 30 minutes at 4° C., pre-adsorbed, and immunoprecipitated using specific antibodies. Immune complexes were washed 4-5 times with lysis buffer or with cold immunoprecipitation wash buffer (50 mM HEPES, pH 7.5; 150 mM NaCl; 0.5% NP-40; 1 mM calcium chloride; 1 mM magnesium chloride). SEPHAROSE-bound immune complexes were boiled in 1× Lammeli reducing sample buffer and resolved by SDS-PAGE.
It was initially determined whether PTEN binds to β-catenin in sub-confluent ECs.

T5 sequence (P05556 21-798): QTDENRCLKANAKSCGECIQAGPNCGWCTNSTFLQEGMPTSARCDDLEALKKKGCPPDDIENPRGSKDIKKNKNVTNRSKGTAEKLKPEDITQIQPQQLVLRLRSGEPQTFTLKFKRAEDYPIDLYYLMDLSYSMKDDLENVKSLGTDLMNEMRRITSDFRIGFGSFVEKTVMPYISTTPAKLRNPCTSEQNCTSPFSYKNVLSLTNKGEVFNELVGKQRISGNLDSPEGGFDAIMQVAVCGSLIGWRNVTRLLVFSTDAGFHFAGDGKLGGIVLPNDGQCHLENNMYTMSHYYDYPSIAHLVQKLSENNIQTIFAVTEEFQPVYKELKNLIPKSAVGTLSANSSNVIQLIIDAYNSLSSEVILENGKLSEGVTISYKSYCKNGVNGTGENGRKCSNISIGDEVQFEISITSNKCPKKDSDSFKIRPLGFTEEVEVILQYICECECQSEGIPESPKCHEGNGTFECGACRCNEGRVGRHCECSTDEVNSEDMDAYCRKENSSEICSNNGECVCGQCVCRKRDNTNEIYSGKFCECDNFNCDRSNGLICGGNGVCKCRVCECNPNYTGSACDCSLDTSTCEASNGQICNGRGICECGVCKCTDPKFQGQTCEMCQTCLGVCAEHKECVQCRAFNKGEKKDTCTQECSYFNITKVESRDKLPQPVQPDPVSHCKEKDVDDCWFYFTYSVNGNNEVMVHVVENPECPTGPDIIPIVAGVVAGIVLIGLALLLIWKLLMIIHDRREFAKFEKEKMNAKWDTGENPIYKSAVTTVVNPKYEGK

B1: Lipid Phosphate Phosphatase-3 (LPP3), endogenous in human dermal microvascular endothelial cells (enzyme, UniProt O14495 1-311, looked up)
chain: MQNYKYDKAIVPESKNGGSPALNNNPRRSGSKRVLLICLDLFCLFMAGLPFLIIETSTIKPYHRGFYCNDESIKYPLKTGETINDAVLCAVGIVIAILAIITGEFYRIYYLKKSRSTIQNPYVAALYKQVGCFLFGCAISQSFTDIAKVSIGRLRPHFLSVCNPDFSQINCSEGYIQNYRCRGDDSKVQEARKSFFSGHASFSMYTMLYLVLYLQARFTWRGARLLRPLLQFTLIMMAFYTGLSRVSDHKHHPSDVLAGFAQGALVACCIVFFVSDLFKTKTTLSLPAPAIRKEILSPVDIIDRNNHHNMM
notes: Endogenous protein immunoprecipitated from hdMVEC lysates; also called phosphatidic acid phosphatase-2b; PAP2b
binding result [1]: no binding

B2: GST-N-cyto fusion protein (GST fused to the N-terminal cytoplasmic domain of LPP3) (other)
chain: QNYKYDKAIVPESKNGGSPALNNNPRRSGSK
notes: Expressed in E. coli; not shown: glutathione-S-transferase (GST)
binding result [2]: no binding

B3: GST-LPP3-C-cyto fusion protein (GST fused to the C-terminal cytoplasmic domain of LPP3) (other)
chain: SDLFKTKMTLSLPAPAIRKEILSPVDIIDRNNHHNMM
modifications: also: fused to glutathione-S-transferase (GST), linker not given here
notes: Expressed in E. coli; ran at 32 kDa; also called GST-C-cyto; GST-CC; not shown: glutathione-S-transferase (GST)
binding result [3]: no binding (tested: 2.0 µg/ml) | binding result (β-catenin, endogenous [4]): no binding (tested: 2.0 µg/ml) | binding result [5]: no binding (tested: 2.0 µg/ml) | binding result [6]: no binding (tested: 2.0 µg/ml)

B4: Lymphoid Enhancer Binding Factor 1 (LEF-1), endogenous in hdMVEC (other, human, UniProt Q9UJU2 1-399, looked up)
chain: MPQLSGGGGGGGGDPELCATDEMIPFKDEGDPQKEKIFAEISHPEEEGDLADIKSSLVNESEIIPASNGHEVARQAQTSQEPYHDKAREHPDDGKHPDGGLYNKGPSYSSYSGYIMMPNMNNDPYMSNGSLSPPIPRTSNKVPVVQPSHAVHPLTPLITYSDEHFSPGSHPSHIPSDVNSKQGMSRHPPAPDIPTFYPLSPGGVGQITPPLGWQGQPVYPITGGFRQPYPSSLSVDTSMSRFSHHMIPGPPGPHTTGIPHPAIVTPQVKQEHPHTDSDLMHVKPQHEQRKEQEPKRPHIKKPLNAFMLYMKEMRANVVAECTLKESAAINQILGRRWHALSREEQAKYYELARKERQLHMQLYPGWSARDNYGKKKKRKREKLQESASGTGPRMTAAYI
notes: Endogenous protein from EC extracts
binding result (β-catenin, endogenous [7]): binds

B5: HA-tagged human wild-type LPP3 (pLNCX2-HA-WT-hLPP3) (enzyme)
chain: YPYDVPDYAYPYDVPDYAYPYDVPDYAMQNYKYDKAIVPESKNGGSPALNNNPRRSGSKRVLLICLDLFCLFMAGLPFLIIETSTIKPYHRGFYCNDESIKYPLKTGETINDAVLCAVGIVIAILAIITGEFYRIYYLKKSRSTIQNPYVAALYKQVGCFLFGCAISQSFTDIAKVSIGRLRPHFLSVCNPDFSQINCSEGYIQNYRCRGDDSKVQEARKSFFSGHASFSMYTMLYLVLYLQARFTWRGARLLRPLLQFTLIMMAFYTGLSRVSDHKHHPSDVLAGFAQGALVACCIVFFVSDLFKTKTTLSLPAPAIRKEILSPVDIIDRNNHHNMM
notes: whole, on cells; Three copies of the HA tag are fused in-frame at the N-terminus; also called HA-LPP3
binding result (β-catenin, endogenous [8]): no binding | binding result [9]: no binding

B6: FLAG-tagged wild-type PTEN (enzyme)
chain: not shown
notes: Gift construct, transfected into sub-confluent ECs; also called WT-PTEN; not shown: FLAG tag
binding result (β-catenin, endogenous [10]): no binding
